Results from IntAct's records for PubMed 31515488.

B1: U6 snRNA-associated Sm-like protein LSm7 (Homo sapiens), Q9UK45 (parent)
chain: MADKEKKKKESILDLSKYIDKTIRVKFQGGREASGILKGFDPLLNLVLDGTIEYMRDPDDQYKLTEDTRQLGLVVCRGTSVVLICPQDGMEAIPNPFIQQQDA
partner: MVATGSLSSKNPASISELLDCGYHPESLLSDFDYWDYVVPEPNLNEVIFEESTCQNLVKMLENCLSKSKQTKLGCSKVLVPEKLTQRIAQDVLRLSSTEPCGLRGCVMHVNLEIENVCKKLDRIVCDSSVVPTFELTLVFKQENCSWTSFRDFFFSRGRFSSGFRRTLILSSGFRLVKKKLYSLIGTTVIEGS
B2: Filamin-binding LIM protein 1 (Homo sapiens), Q8WUP2 (parent)
chain: MASKPEKRVASSVFITLAPPRRDVAVAEEVRQAVCEARRGRPWEAPAPMKTPEAGLAGRPSPWTTPGRAAATVPAAPMQLFNGGCPPPPPVLDGEDVLPDLDLLPPPPPPPPVLLPSEEEAPAPMGASLIADLEQLHLSPPPPPPQAPAEGPSVQPGPLRPMEEELPPPPAEPVEKGASTDICAFCHKTVSPRELAVEAMKRQYHAQCFTCRTCRRQLAGQSFYQKDGRPLCEPCYQDTLERCGKCGEVVRDHIIRALGQAFHPSCFTCVTCARCIGDESFALGSQNEVYCLDDFYRKFAPVCSICENPIIPRDGKDAFKIECMGRNFHENCYRCEDCRILLSVEPTDQGCYPLNNHLFCKPCHVKRSAAGCC
partner: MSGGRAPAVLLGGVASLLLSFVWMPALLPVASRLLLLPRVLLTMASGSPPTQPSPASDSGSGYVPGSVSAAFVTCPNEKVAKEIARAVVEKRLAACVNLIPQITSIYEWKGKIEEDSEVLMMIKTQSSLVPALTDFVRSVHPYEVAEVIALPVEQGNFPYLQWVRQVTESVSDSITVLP
B3: Signal transducing adapter molecule 1 (Homo sapiens), Q92783 (parent)
chain: MPLFATNPFDQDVEKATSEMNTAEDWGLILDICDKVGQSRTGPKDCLRSIMRRVNHKDPHVAMQALTLLGACVSNCGKIFHLEVCSRDFASEVSNVLNKGHPKVCEKLKALMVEWTDEFKNDPQLSLISAMIKNLKEQGVTFPAIGSQAAEQAKASPALVAKDPGTVANKKEEEDLAKAIELSLKEQRQQSTTLSTLYPSTSSLLTNHQHEGRKVRAIYDFEAAEDNELTFKAGEIITVLDDSDPNWWKGETHQGIGLFPSNFVTADLTAEPEMIKTEKKTVQFSDDVQVETIEPEPEPAFIDEDKMDQLLQMLQSTDPSDDQPDLPELLHLEAMCHQMGPLIDEKLEDIDRKHSELSELNVKVMEALSLYTKLMNEDPMYSMYAKLQNQPYYMQSSGVSGSQVYAGPPPSGAYLVAGNAQMSHLQSYSLPPEQLSSLSQAVVPPSANPALPSQQTQAAYPNTMVSSVQGNTYPSQAPVYSPPPAATAAAATADVTLYQNAGPNMPQVPNYNLTSSTLPQPGGSQQPPQPQQPYSQKALL
B4: Macrophage scavenger receptor types I and II (Homo sapiens), P21757 (parent)
chain: MEQWDHFHNQQEDTDSCSESVKFDARSMTALLPPNPKNSPSLQEKLKSFKAALIALYLLVFAVLIPLIGIVAAQLLKWETKNCSVSSTNANDITQSLTGKGNDSEEEMRFQEVFMEHMSNMEKRIQHILDMEANLMDTEHFQNFSMTTDQRFNDILLQLSTLFSSVQGHGNAIDEISKSLISLNTTLLDLQLNIENLNGKIQENTFKQQEEISKLEERVYNVSAEIMAMKEEQVHLEQEIKGEVKVLNNITNDLRLKDWEHSQTLRNITLIQGPPGPPGEKGDRGPTGESGPRGFPGPIGPPGLKGDRGAIGFPGSRGLPGYAGRPGNSGPKGQKGEKGSGNTLTPFTKVRLVGGSGPHEGRVEILHSGQWGTICDDRWEVRVGQVVCRSLGYPGVQAVHKAAHFGQGTGPIWLNEVFCFGRESSIEECKIRQWGTRACSHSEDAGVTCTL
partner: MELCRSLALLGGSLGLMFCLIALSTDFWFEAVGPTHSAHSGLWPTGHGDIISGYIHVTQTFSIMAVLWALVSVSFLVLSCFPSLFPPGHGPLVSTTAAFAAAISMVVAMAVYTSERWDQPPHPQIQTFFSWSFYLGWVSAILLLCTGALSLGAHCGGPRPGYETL
B5: ATP synthase mitochondrial F1 complex assembly factor 2 (Homo sapiens), Q8N5M1 (parent)
chain: MWRSCLRLRDGGRRLLNRPAGGPSASMSPGPTIPSPARAYAPPTERKRFYQNVSITQGEGGFEINLDHRKLKTPQAKLFTVPSEALAIAVATEWDSQQDTIKYYTMHLTTLCNTSLDNPTQRNKDQLIRAAVKFLDTDTICYRVEEPETLVELQRNEWDPIIEWAEKRYGVEISSSTSIMGPSIPAKTREVLVSHLASYNTWALQGIEFVAAQLKSMVLTLGLIDLRLTVEQAVLLSRLEEEYQIQKWGNIEWAHDYELQELRARTAAGTLFIHLCSESTTVKHKLLKE

Variants of: B1
Conditions: with ddt4l_human DDIT4L

Variant | effect of a mutation on the interaction
G78A | with no effect

Variants of: B2
Conditions: with cuta_human CUTA

Variant | effect of a mutation on the interaction
Y204C | disrupting interaction strength

Variants of: B3
Conditions: with hgs_human HGS

Variant | effect of a mutation on the interaction
V61I | with no effect
I343T | with no effect
I350T | with no effect
A367T | with no effect

Variants of: B4
Conditions: with nkg7_human NKG7, Q16617

Variant | effect of a mutation on the interaction
V113A | with no effect
P346L | with no effect
P275A | with no effect

Variants of: B5
Conditions: with tri23_human TRIM23, P36406
Sequence of tri23_human TRIM23, P36406 (P36406 whole entry): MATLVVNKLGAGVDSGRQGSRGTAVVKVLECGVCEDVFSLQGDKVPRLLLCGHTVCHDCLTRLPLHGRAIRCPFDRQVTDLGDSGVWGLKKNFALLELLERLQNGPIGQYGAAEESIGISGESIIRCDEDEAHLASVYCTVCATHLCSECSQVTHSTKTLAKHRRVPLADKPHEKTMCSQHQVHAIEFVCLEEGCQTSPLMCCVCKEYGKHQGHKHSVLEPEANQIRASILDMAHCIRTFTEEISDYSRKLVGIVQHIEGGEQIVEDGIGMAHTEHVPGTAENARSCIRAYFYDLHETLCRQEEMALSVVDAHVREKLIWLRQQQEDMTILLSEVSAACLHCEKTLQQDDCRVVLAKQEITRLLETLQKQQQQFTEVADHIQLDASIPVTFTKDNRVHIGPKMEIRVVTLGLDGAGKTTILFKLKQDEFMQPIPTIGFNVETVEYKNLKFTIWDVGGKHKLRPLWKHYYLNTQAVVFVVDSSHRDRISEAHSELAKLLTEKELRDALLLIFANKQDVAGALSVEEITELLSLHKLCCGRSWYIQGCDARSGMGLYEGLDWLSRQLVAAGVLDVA

Variant | effect of a mutation on the interaction
E241G | with no effect

Variants of: B5
Conditions: with ews_human EWSR1, Q01844
Sequence of ews_human EWSR1, Q01844 (Q01844 whole entry): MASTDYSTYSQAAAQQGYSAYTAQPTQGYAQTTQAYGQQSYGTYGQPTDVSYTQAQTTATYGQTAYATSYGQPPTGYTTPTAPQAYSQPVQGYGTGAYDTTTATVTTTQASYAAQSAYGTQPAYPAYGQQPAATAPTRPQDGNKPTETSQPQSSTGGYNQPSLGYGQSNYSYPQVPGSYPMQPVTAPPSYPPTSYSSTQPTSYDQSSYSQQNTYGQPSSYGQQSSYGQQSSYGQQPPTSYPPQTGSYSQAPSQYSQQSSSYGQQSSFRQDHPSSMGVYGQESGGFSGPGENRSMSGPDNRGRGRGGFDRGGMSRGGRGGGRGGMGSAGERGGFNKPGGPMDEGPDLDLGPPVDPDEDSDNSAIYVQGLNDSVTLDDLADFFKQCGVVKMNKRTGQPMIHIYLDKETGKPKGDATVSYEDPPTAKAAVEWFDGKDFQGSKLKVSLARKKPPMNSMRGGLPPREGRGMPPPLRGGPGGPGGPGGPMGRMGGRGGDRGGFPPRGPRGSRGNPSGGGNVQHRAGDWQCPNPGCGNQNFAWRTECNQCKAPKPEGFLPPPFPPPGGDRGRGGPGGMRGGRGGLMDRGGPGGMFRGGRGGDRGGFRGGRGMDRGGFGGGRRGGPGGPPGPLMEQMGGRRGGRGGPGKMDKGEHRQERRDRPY

Variant | effect of a mutation on the interaction
E241G | with no effect
